Measured values as given in the supplement of paper PMC7125110.
± gives the standard error. Fewer inactive variants are shown than the library holds.

B1: glmS ribozyme (parent)
chain: AUAAAAGCGCCAGAACUACAGAAAUGUAGUUGACGAGGAGGAGGUUUAUCGAAUUUUCGGCGGAUGCCUCCAAA

Variants of: B1
Assay: self-cleavage kobs at 640 uM GlcN6P; higher = faster cleavage; RNA array
Conditions: with glucosamine-6-phosphate
Method in brief: (§1)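 Weighted Michaelis–Menten fits across concentrations supplied kcat and KM, based on kobs from one- or two-exponential decay fits to normalised per-tile medians. The data came from barcoded ribozyme variants transcribed in situ by E. coli RNA polymerase on sequenced MiSeq chips and tracked at 37 °C by a hybridised Cy3 probe. Glucosamine-6-phosphate (40 μM to 10 mM) in HEPES/KCl/Mg(OAc)2 buffer was flowed in.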

| Variant | self-cleavage kobs at 640 uM GlcN6P [s⁻¹] |
| --- | --- |
| AUAAAAGCGCCAGAACUACAGAAAUGUAGUUGACGAGGGGGAGGUUUAUCGAAUUUUGGCCGGAUGCCUCCAAA [A39G C58G G60C] | < 1e-05 |
| AUAAAAGCGCCACAACUACAGAAAUGUAGUUGACGAUGUGGAGGUUUAUCGAAUUUUCGGCGGAUGCCUCCAAA [G13C G37U A39U] | < 1e-05 |
| AUAAAAGCGCCAGAACUACAGAAAUGUAGUUAACGAGGAGAAGGUUUAUUGAAUUUUCGGCGGAUGCCUCCAAA [G32A G41A C50U] | < 1e-05 |
| AUAAAAGCGCCAGAACUACAGAAAUGUAGUUGACGAGGAGUAGGUUUUUCGAAUUUUCGGCGGCUGCCUCCAAA [G41U A48U A64C] | < 1e-05 |
| AUAAAAGCGCCCGAACUACAGAAAUGUAAUUGACGAAGAGGAGGUUUAUCGAAUUUUCGGCGGAUGCCUCCAAA [A12C G29A G37A] | 0.000302 ± 8.2e-05 |
| AUAAAAGCGCCACAACUACAGAAAUGUAUUUGACGAGGAGGAGGUUUAUCGAAUUUUCGGCGGAUGCCUCGAAA [G13C G29U C71G] | < 1e-05 |
| AUAAAAGCGCCAGAAAUACAGAAAUGUAGUUGACGAGGAGGAGGUUUAUCGAAUUUUCUACGGAUGCCUCCAAA [C16A G59U G60A] | < 1e-05 |
| AUAAAAGCGCCAGAACUACAGAAAUGUAGUUGACGCGGAGGAGGUUUAUCAAAUUUUCGGCGGAUGCCUCGAAA [A36C G51A C71G] | 6.03e-05 ± 2.2e-05 |
| AUAAAAGCGCCAGGACUACAGAAAUGUAGUUGACGAGGAGGAGGUUUAUCGUAUUUUCGACGGAUGCCUCCAAA [A14G A52U G60A] | < 1e-05 |
| AUAAAAGCUCCAGAACUACAGAAAUGUAGUUGAAGAGGAGGAGGUUUAUCGAAUUUUCUGCGAAUGCCUCCAAA [G9U C34A G59U G63A] | < 1e-05 |
| AUAAAAGCGCCUGAAAUACAGAAAUGUAGUUGACGAGGAGGAGGUUUAUAGAAUUUUCGGCGGGUGCCUCCAAA [A12U C16A C50A A64G] | < 1e-05 |
| AUAAAAGCGCCAUAACUACAGAAAUGUAGUUGACGAGGAGGAGGUUUAUCGAAUUCUCGGCGGUUGCCUCCAAA [G13U U56C A64U] | < 1e-05 |
| AUAAAAGCUCCAGAACUACAGAAAUGUAGUUGACGAGGAGGAGGUUUAUCGAAUUUUCCGCGCAUGCCUUCAAA [G9U G59C G63C C70U] | < 1e-05 |
| AUAAAAGCGCCAGAACUACAGAAAUGUAGUUGCCGAAGAGCAGGUUUAUCGAAUUCUCGGCGGAUGCCUCCAAA [A33C G37A G41C U56C] | < 1e-05 |
| AUAAAAGCGCCAGAACUACAGAAAUGUAGUUGCCAAGGAGGAGGUAUAUCGAAUUUUCGGCGGAUGCCUCCAAA [A33C G35A U46A] | < 1e-05 |
| AUAAAAGCGCCAGAACUACAGAAAUGUAGUUGACGAGGAGGCGGUUUAUCGUAUUUUCGGCGGGUGCCUCCAAA [A42C A52U A64G] | < 1e-05 |
| AUAAAACCGCCAGAACUACAGAAAUGUAGGUGACGAGGAGGAGGUUUAUCGAAUUUUCGGCGGGUGCCUCCAAA [G7C U30G A64G] | < 1e-05 |
| AUAAAAGCGCCACAACUACAGAAAUGUAGUUGACGACGAGGAGGGUUAUCGAAUUUUCGGCGGAUGCCUCCAAA [G13C G37C U45G] | < 1e-05 |
| AUAAAAGCGCCAGAACUACAGAAAUGUAGUUGACGUGGUGGAGGUUUAUCGAAUUUUCGGCGGAUGCCUCUAAA [A36U A39U C71U] | < 1e-05 |
| AUAAAAGCGACAGAACUACAGAAAUGUAGUUGACGAGGAGGAGGUUUAUCGAAUUUUCGGGGGAUGGCUCCAAA [C10A C61G C67G] | 0.00401 ± 0.0011 |
| AUAAAAGUGCCAGAUCUACAGAAAUGUAGUUGACGAGGAGGAGGUGUAUCAAAUUUUCGGCGGAUACCUCCAAA [C8U A15U U46G G51A G66A] | < 1e-05 |
| AUAAAAGCGCCAGAACUACAGAAAUGUAGUUGACUAGGAGGAGGUUUAUCGAAUUUUUGGCGGUUGCAUCCAAA [G35U C58U A64U C68A] | < 1e-05 |
| AUAAAAGCGCCAGAGCUACAGAAAUGUAGUUGACGAGGAGGAGGUUUAUCGACUUUUCGGCGGAUGCUUCCAAA [A15G A53C C68U] | 4.28e-05 ± 2e-05 |
| AUAAAAGCCCCAGAACUACAGAAAUGUAGUUGACGAGGAAGAGGUUUAUCGAAUUUUCGGCGGAUUCGUCCAAA [G9C G40A G66U C68G] | < 1e-05 |

Variants of: B1
Assay: self-cleavage kobs at 2500 uM GlcN6P; higher = faster cleavage; RNA array
Conditions: with glucosamine-6-phosphate
Method in brief: as §1

| Variant | self-cleavage kobs at 2500 uM GlcN6P [s⁻¹] |
| --- | --- |
| AUAAAAGCGCCAGAACUACAGAAAUGUAGUUGACGAGGGGGAGGUUUAUCGAAUUUUGGCCGGAUGCCUCCAAA [A39G C58G G60C] | < 1e-05 |
| AUAAAAGCGCCACAACUACAGAAAUGUAGUUGACGAUGUGGAGGUUUAUCGAAUUUUCGGCGGAUGCCUCCAAA [G13C G37U A39U] | < 1e-05 |
| AUAAAAGCGCCAGAACUACAGAAAUGUAGUUAACGAGGAGAAGGUUUAUUGAAUUUUCGGCGGAUGCCUCCAAA [G32A G41A C50U] | < 1e-05 |
| AUAAAAGCGCCAGAACUACAGAAAUGUAGUUGACGAGGAGUAGGUUUUUCGAAUUUUCGGCGGCUGCCUCCAAA [G41U A48U A64C] | < 1e-05 |
| AUAAAAGCGCCCGAACUACAGAAAUGUAAUUGACGAAGAGGAGGUUUAUCGAAUUUUCGGCGGAUGCCUCCAAA [A12C G29A G37A] | 0.000142 ± 5.2e-05 |
| AUAAAAGCUCCAGAACUACAGAAAUGUAGUUGAAGAGGAGGAGGUUUAUCGAAUUUUCUGCGAAUGCCUCCAAA [G9U C34A G59U G63A] | < 1e-05 |
| AUAAAAGCGCCAUAACUACAGAAAUGUAGUUGACGAGGAGGAGGUUUAUCGAAUUCUCGGCGGUUGCCUCCAAA [G13U U56C A64U] | < 1e-05 |
| AUAAAAGCGCCAGAACUACAGAAAUGUAGUUGACGAGGAGGCGGUUUAUCGUAUUUUCGGCGGGUGCCUCCAAA [A42C A52U A64G] | < 1e-05 |
| AUAAAAGCGCCACAACUACAGAAAUGUAGUUGACGACGAGGAGGGUUAUCGAAUUUUCGGCGGAUGCCUCCAAA [G13C G37C U45G] | < 1e-05 |
| AUAAAAGCGCCAGAGCUACAGAAAUGUAGUUGACGAGGAGGAGGUUUAUCGACUUUUCGGCGGAUGCUUCCAAA [A15G A53C C68U] | 0.000114 ± 3.9e-05 |

Variants of: B1
Assay: self-cleavage kobs at 10000 uM GlcN6P; higher = faster cleavage; RNA array
Conditions: with glucosamine-6-phosphate
Method in brief: as §1

| Variant | self-cleavage kobs at 10000 uM GlcN6P [s⁻¹] |
| --- | --- |
| AUAAAAGCGCCAGAACUACAGAAAUGUAGUUGACGAGGGGGAGGUUUAUCGAAUUUUGGCCGGAUGCCUCCAAA [A39G C58G G60C] | < 1e-05 |
| AUAAAAGCGCCAUAACUACAGAAAUGUAGUUGACGAGGAGGAGGUUUAUCGAAUUCUCGGCGGUUGCCUCCAAA [G13U U56C A64U] | < 1e-05 |
